“Also recorded” adds a separate entry of the source.

One test concerns the target T1, PNPase (Escherichia coli, UniProt P05055).
T1 construct: made in house; host or cells: E. coli Evo21(DE3)
T1 sequence (P05055 whole entry, looked up): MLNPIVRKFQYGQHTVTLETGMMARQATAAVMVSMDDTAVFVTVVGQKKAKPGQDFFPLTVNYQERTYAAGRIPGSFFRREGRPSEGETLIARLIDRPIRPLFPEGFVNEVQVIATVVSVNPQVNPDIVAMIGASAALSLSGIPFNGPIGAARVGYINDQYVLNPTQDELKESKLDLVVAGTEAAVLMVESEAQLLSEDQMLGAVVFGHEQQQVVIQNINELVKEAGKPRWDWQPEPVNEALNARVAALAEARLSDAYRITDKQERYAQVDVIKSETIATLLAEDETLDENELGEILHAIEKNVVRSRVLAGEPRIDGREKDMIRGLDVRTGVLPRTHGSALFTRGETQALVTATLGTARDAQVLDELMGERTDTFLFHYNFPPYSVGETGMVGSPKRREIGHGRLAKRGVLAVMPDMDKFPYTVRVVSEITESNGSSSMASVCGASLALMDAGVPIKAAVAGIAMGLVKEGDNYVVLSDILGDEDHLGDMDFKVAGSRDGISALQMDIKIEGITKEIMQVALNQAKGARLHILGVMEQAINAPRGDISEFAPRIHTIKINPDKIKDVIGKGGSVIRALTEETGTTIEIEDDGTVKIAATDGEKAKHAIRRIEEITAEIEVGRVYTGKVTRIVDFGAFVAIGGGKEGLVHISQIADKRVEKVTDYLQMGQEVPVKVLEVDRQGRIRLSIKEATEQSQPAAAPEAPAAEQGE
The format is binding, E. coli. From the text:
Briefly, at the N-terminal of the construct, there is an Hisx6 affinity tag that will be used for affinity purification. Following the Hisx6 tag there is an maltose-binding protein (MBP) tag with a TEV cleavage site to maintain solubility of the peptides. Following the MBP tag the gene encoding the peptide is inserted, and is then followed by intein, a self-cleavable tag, followed by a choline-binding domain, which can be used for an extra step of affinity purification. […] After expression, cells were harvested, resuspended in Lysis Buffer 2 (20 mM Tris–HCl, pH 8.0, 80 mM KCl, 300 mM NaCl, 20 mM Imidazole, 0.5 mM TCEP), and lysed with a cell disruptor (Emulsiflex, Avestin). […] After subsequent rounds of washing with Ni Equilibration Buffer supplemented with, respectively, 0.1% Triton-X, 1 M NaCl, and a final wash in Ni Equilibration Buffer, samples were eluted with Ni Elution Buffer (20 mM Tris–HCl, pH 8.0, 300 mM NaCl, 300 mM imidazole, 0.5 mM TCEP). Enriched fractions were then supplemented with 100 mM β-mercaptoethanol to catalyse intein self-cleavage overnight at room temperature. Treated samples were filtered and loaded on an amylose gravity flow column, equilibrated with Amy Equilibration Buffer (20 mM Tris–HCl, pH 8.0, 20 mM NaCl, 20 mM imidazole, 2 mM β-mercaptoethanol) and after washing, His-tagged TEV protease was applied to the resin and incubated at 4°C for 2 h.
PNPase carrying a C-terminal Hisx6 tag was expressed from pExp-cis-Ec_PNP-CHis vector in E. coli Evo21(DE3) cells, induced with 0.4 mM IPTG, at 18°C overnight. After expression, cells were harvested and resuspended in Lysis Buffer 2 (20 mM Tris–HCl, pH 8.0, 80 mM KCl, 300 mM NaCl, 20 mM imidazole, 0.5 mM TCEP), and lysed with a cell disruptor (Emulsiflex, Avestin). […] After subsequent rounds of washing with equilibration buffer supplemented with 0.1% Triton-X, or 1 M NaCl, the sample was eluted with Ni PNPCHis Elution Buffer (20 mM NaH2PO4, pH 8.0, 300 mM NaCl, 300 mM KCl, 5 mM MgCl2, 300 mM imidazole, pH 7.5, 10 mM β-mercaptoethanol). […] Fractions containing PNPase were run through a HiPrep™ 26/10 Desalting Column (GE Healthcare) and buffer exchanged to Q PNPCHis A (20 mM NaH2PO4, pH 8.0, 30 mM NaCl, 10% glycerol, 0.5 mM TCEP).
Interaction measurements were made using a Biacore T200 instrument (GE) at 25°C. PNPase with a 6xHisTag at the CTD was immobilized on a Series S Sensor Chip NTA (Cytiva) to provide a signal of 5 response units (RU). […] For the SPR analysis of the point mutants, binding to PNPase was measured at four different concentrations (0, 12.5, 25, and 50 nM). All concentrations were run in duplicates. The contact time was 60 s, while the dissociation time was 120 s, at a […] flow rate. […] The chip surface was regenerated with 350 mM EDTA in water, following manufacturer's instructions. Data were processed using the manufacturer’s BIAevaluation software.

Test [1] concerns the target T2, PNPase carrying a C-terminal Hisx6 tag (E. coli polynucleotide phosphorylase) (E. coli, UniProt P05055 1-711).
T2 construct: polynucleotide phosphorylase (PNPase), E. coli; Immobilised through the His tag on an NTA chip for SPR; also called PNPase C-His; PNPase with a 6xHisTag at the CTD; source: E. coli Evo21(DE3), purified (Ni-NTA, butyl-Sepharose HIC, Q, Superdex S200); not shown: His6, C-terminal, kept
T2 sequence (looked up): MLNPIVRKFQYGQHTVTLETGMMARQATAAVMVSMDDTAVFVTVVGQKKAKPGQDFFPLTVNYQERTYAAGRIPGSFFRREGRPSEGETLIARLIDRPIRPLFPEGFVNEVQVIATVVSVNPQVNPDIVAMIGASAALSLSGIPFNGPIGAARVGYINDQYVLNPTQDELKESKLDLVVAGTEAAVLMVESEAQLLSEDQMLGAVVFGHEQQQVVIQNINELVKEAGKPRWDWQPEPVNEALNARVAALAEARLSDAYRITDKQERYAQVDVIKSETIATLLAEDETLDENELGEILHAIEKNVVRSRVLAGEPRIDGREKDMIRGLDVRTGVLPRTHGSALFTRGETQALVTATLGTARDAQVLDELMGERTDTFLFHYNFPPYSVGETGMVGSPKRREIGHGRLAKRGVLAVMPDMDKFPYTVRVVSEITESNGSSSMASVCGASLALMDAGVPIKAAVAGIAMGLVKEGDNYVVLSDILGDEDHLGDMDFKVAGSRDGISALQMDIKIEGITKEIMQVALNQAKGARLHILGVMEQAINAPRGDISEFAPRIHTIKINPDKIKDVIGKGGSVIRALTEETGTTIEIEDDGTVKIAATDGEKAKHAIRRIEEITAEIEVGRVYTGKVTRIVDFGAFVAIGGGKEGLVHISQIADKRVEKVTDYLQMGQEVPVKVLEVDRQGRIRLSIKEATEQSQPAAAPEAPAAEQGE
The test is described as follows: SPR; PNPase with C-terminal His6 tag immobilised on Series S Sensor Chip NTA (5 RU); Biacore T200, 25°C; 20 mM HEPES pH 7.2, 150 mM NaCl, 5 mM MgCl2, 0.5 mM TCEP, 0.05% Tween 20; six peptide concentrations up to 9000 nM (up to 5000 nM for RNase E 985–1061); contact 60 s, dissociation 120 s. Particulars: both partners purified. (In general: In SPR one partner is held on a chip, and binding of the other changes the refractive index at the surface.)

B1: RNase E 960–1039: RNase E peptide carrying the plausible secondary binding motif β2 (peptide)
chain: VVETAEVVVAEPEVVAQPAAPVVAEVAAEVETVAAVEPEVTVEHNHATAPMTRAPAPEYVPEAPRHSDWQRPTFAFEGKG
modifications: left off: His6, N-terminal, cleaved | MBP, N-terminal, cleaved | intein, C-terminal, cleaved | choline-binding domain, C-terminal, cleaved
Regarding B1, the “binding to PNPase (detected or not)” value with PNPase (pH 7.2) is reported as “does not interact with PNPase; also recorded: no binding was detected”.

B2: RNase E 1039-1061 (peptide, UniProt P21513 1039-1061, looked up)
chain: GAAGGHTATHHASAAPARPQPVE
notes: source: E. coli Evo21(DE3), pMxe vector, purified (Ni-NTA, amylose, TEV, Q, Superdex 75); not shown: His6, N-terminal, cleaved; MBP, N-terminal, cleaved; intein, C-terminal, cleaved
With B2, in test [1], binding was characterised by a dissociation constant (Kd) of 5920 nM; the koff (as a rule, the rate constant with which the complex falls apart) is 0.833 s⁻¹; the kon (commonly the second-order rate constant of association) turned out to be 140000 M⁻¹ s⁻¹.

B3: RNase E 985-1061 (domain or fragment, E. coli, UniProt P21513 985-1061, looked up)
chain: VAAEVETVAAVEPEVTVEHNHATAPMTRAPAPEYVPEAPRHSDWQRPTFAFEGKGAAGGHTATHHASAAPARPQPVE
notes: as for B2
On to B3, for which, in test [1], binding was characterised by a dissociation constant (Kd) of 4.02 nM, the koff was determined as 0.0158 s⁻¹ and the on-rate (kon) came out at 3.93e+06 M⁻¹ s⁻¹.

B4: RNase E 985-1061: RNase E peptide that includes both β1 and β2 motifs (peptide)
chain: VAAEVETVAAVEPEVTVEHNHATAPMTRAPAPEYVPEAPRHSDWQRPTFAFEGKGAAGGHTATHHASAAPARPQPVE
modifications: left off: His6, N-terminal, cleaved | MBP, N-terminal, cleaved | intein, C-terminal, cleaved | choline-binding domain, C-terminal, cleaved
notes: RNase E peptide that includes both β1 and β2 motifs
For B4, in the test with PNPase, the “cause of increase in affinity over 1039–1061, in words” value was “both acceleration of on-rate and decrease of off-rate”. In the test with PNPase (pH 7.2), the “KD range in words” value was “from the micromolar range to the low nanomolar range”, the k a was 3.93E + 6 1/M s and the k d came out at 0.0158 s⁻¹.

For the origin of these results see paper PMC12489471, “A multi-dentate, cooperative interaction between endo- and exo-ribonucleases within the bacterial RNA degradosome” (Nucleic Acids Research, 2025).
